The target in series [1] is T1, His6-MBP-FXR1P (Homo sapiens, UniProt P51114-2 1-539). Put plainly: EMSA; 250 nM protein; FA: 20 mM Tris pH 7.5, 75 mM KCl, 5 mM MgCl2, 1 uM BSA, 1 mM DTT, 100 ng/uL tRNA, ~5 nM RNA, RT 1 h; EMSA: 50 mM Tris pH 7.5, 145 mM KCl, 5 mM MgCl2, 1 uM BSA. The note with it: protein: recombinant, tags: N-terminal His6-MBP.
The target of series [2] is His6-MBP (UniProt P0AEX9 27-392). The series is described as follows: fluorescence anisotropy; FA: 20 mM Tris pH 7.5, 75 mM KCl, 5 mM MgCl2, 1 uM BSA, 1 mM DTT, 100 ng/uL tRNA, ~5 nM RNA, RT 1 h; EMSA: 50 mM Tris pH 7.5, 145 mM KCl, 5 mM MgCl2, 1 uM BSA.
Series [3] addresses T1, His6-MBP-FXR1P. Put plainly: fluorescence anisotropy; 75 mM K+, 5 mM Mg2+; FA: 20 mM Tris pH 7.5, 75 mM KCl, 5 mM MgCl2, 1 uM BSA, 1 mM DTT, 100 ng/uL tRNA, ~5 nM RNA, RT 1 h; EMSA: 50 mM Tris pH 7.5, 145 mM KCl, 5 mM MgCl2, 1 uM BSA. As to conditions: protein: recombinant; tags: N-terminal His6-MBP; label: 3' fluorescein; G-quadruplex forming.

T1 sequence (P51114 other isoform, or with tags, fused parts or gaps): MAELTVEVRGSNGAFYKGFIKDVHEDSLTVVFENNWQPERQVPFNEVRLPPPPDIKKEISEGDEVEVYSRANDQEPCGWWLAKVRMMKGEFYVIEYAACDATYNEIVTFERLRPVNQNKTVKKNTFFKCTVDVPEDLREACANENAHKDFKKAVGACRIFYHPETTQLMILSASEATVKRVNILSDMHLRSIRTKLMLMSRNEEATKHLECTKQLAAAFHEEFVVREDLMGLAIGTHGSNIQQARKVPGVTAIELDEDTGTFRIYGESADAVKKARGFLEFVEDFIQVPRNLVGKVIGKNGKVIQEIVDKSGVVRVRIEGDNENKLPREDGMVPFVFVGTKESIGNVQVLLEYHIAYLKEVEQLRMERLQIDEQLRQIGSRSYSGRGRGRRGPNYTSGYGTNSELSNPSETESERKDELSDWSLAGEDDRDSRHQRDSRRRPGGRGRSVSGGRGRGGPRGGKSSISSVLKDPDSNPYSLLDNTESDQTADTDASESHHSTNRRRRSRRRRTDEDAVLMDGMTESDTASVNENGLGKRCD

B1: ΔKC2 (structured_RNA)
RNA: GGGCGAAUUCGGGAUUCCGACCAGAAGGGGCUAAGGAAUGGUGGGACGAGCUAGCGGCUGGUAUGUGCGUCU
For B1, the binding result in series [1] (label: 3' fluorescein (FTSC, periodate-oxidized 3' end), loop-loop pseudoknot (kissing complex)) is listed as “binds”.

B2: CR1 (ssRNA)
RNA: GCUAUCCAGAUUCUGAUU
For B2, the binding result in series [1] (label: 3' fluorescein, single strand, no predicted G-quadruplex) is listed as “no binding”.

B3: poly-G17U (structured_RNA)
RNA: GGGGGGGGGGGGGGGGGU
Turning to B3, the binding result in series [2] is “no binding”. In series [3], the Kd is 11.7 ± 1 nM.

Values taken from publication PMC7522082, “A simple procedure for bacterial expression and purification of the fragile X protein family”.
